Data: patent publication US8431531B2, “Methods for stimulating glucagon-like peptide-1(GLP-1) secretion and treatments comprising same” (Campina Nederland Holding B.V., priority 2005, dated 2013)
Each block holds one substance with its values, some of them ahead of it.

Tests used:
[1] = plasma; degradation by DPP-IV; cited from earlier work
DPP-IV = target: T1, DPP-IV (Sus scrofa, UniProt P22411); experiment: In vitro measurement of DPP-IV activity (Gly-Pro-p-nitroanilide substrate, absorption at 385 nm); format: biochemical; conditions: Tris buffer pH 8.0
T1 construct: purchased Sigma D-7052
Method: DPP-IV activity can be determined by measuring the increase in absorption at 385 nm using Gly-Pro-p-nitroanilide (Sigma G-0513) as DPP-IV substrate. A decrease in DPP-IV activity is a measure for the inhibition.
13.152 mg Gly-Pro-p-nitroanilide (substrate; Sigma G-0513) was dissolved in 1 ml Tris buffer, pH 8.0. DPP-IV (Sigma D-7052) was diluted with Tris buffer, pH 8.0 to 1.1 Unit/ml. The substrate was diluted 50-fold with Tris buffer, pH 8.0. The samples were prepared by diluting a protein hydrolysate to a 1 wt. % protein solution in Tris buffer, pH 8.0. The samples were then serially diluted to obtain a range of sample concentrations. 50 μl of the different serially diluted samples and 50 μl of the diluted substrate were then pipetted in wells of a microtiter plate with 96 wells. Subsequently, 100 μl of the diluted enzyme was pipetted in each well of a plate with 96 wells. Then the increase in absorption at 385 nm was determined and DPP-IV activities at different concentrations of a variety of protein hydrolysates were determined, from which the IC50 (i.e. the concentration of inhibitor (particular protein hydrolysate) that inhibits 50% of the DPP-IV activity) could be derived. […] The degree of hydrolysis was determined using the o-phtaldialdehyde method, which is well known in the art.

[2] = test system: Sodium caseinate from DMV International, NL (unhydrolysed, DH 0%)
[3] = test system: Bipro from Davisco Foods, USA (unhydrolysed, DH 0%)

T1 sequence (P22411 whole entry): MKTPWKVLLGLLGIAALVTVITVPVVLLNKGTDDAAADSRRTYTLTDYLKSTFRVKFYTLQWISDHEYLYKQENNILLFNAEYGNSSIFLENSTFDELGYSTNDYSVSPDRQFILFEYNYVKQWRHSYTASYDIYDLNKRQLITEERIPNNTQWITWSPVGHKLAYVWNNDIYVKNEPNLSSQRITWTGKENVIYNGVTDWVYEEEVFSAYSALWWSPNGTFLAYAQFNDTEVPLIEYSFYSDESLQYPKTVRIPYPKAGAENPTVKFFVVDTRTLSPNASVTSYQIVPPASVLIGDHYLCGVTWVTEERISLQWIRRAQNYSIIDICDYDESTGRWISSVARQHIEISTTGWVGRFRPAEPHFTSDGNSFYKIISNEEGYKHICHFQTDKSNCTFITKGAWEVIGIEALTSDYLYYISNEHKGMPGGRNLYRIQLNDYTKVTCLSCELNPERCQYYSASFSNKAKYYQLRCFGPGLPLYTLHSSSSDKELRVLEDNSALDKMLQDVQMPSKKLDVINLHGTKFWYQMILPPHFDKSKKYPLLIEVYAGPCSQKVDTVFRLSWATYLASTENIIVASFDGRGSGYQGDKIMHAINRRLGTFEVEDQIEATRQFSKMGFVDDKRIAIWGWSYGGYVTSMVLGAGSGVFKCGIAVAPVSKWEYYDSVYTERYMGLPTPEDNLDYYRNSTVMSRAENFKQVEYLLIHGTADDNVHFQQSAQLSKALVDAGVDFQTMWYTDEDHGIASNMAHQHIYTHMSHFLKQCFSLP

Substance: GLP-1: 30 amino acid incretin peptide, sequence HAEGTFTSDVSSYLEGQAAKEFIAWLVKGR (SEQ ID NO: 1)
half-life [1]: 1 to 2 min

DPP-IV inhibition by unhydrolysed protein (control, DH 0%) (DPP-IV): did not inhibit the enzyme
Substance: Sodium caseinate

Substance: dipeptidyl peptidase IV (DPP-IV)
DPP-IV activity (Gly-Pro-p-nitroanilide substrate, absorption at 385 nm) [2]: unhydrolysed protein did not inhibit the enzyme
DPP-IV activity (Gly-Pro-p-nitroanilide substrate, absorption at 385 nm) [3]: unhydrolysed protein did not inhibit the enzyme
